# Laboratory results published in paper PMC12290104, “PEAK1 maintains tight junctions in intestinal epithelial cells and resists colitis by inhibiting autophagy-mediated ZO-1 degradation” (Nature Communications, 2025).
# B1: FC-tagged PEAK1^WT (Fc fusion, human, UniProt Q9H792 1-1746, looked up)
# chain: MSACNTFTEHVWKPGECKNCFKPKSLHQLPPDPEKAPITHGNVKTNANHSNNHRIRNTGNFRPPVAKKPTIAVKPTMIVADGQSICGELSIQEHCENKPVIIGWNRNRAALSQKPLNNNNEDDEGISHVPKPYGNNDSAKKMSDNNNGLTEVLKEIAGLDTAPQIRGNETNSRETFLGRINDCYKRSLERKLPPSCMIGGIKETQGKHVILSGSTEVISNEGGRFCYPEFSSGEESEEDVLFSNMEEEHESWDESDEELLAMEIRMRGQPRFANFRANTLSPVRFFVDKKWNTIPLRNKSLQRICAVDYDDSYDEILNGYEENSVVSYGQGSIQSMVSSDSTSPDSSLTEESRSETASSLSQKICNGGLSPGNPGDSKDMKEIEPNYESPSSNNQDKDSSQASKSSIKVPETHKAVLALRLEEKDGKIAVQTEKEESKASTDVAGQAVTINLVPTEEQAKPYRVVNLEQPLCKPYTVVDVSAAMASEHLEGPVNSPKTKSSSSTPNSPVTSSSLTPGQISAHFQKSSAIRYQEVWTSSTSPRQKIPKVELITSGTGPNVPPRKNCHKSAPTSPTATNISSKTIPVKSPNLSEIKFNSYNNAGMPPFPIIIHDEPTYARSSKNAIKVPIVINPNAYDNLAIYKSFLGTSGELSVKEKTTSVISHTYEEIETESKVPDNTTSKTTDCLQTKGFSNSTEHKRGSVAQKVQEFNNCLNRGQSSPQRSYSSSHSSPAKIQRATQEPVAKIEGTQESQMVGSSSTREKASTVLSQIVASIQPPQSPPETPQSGPKACSVEELYAIPPDADVAKSTPKSTPVRPKSLFTSQPSGEAEAPQTTDSPTTKVQKDPSIKPVTPSPSKLVTSPQSEPPAPFPPPRSTSSPYHAGNLLQRHFTNWTKPTSPTRSTEAESVLHSEGSRRAADAKPKRWISFKSFFRRRKTDEEDDKEKEREKGKLVGLDGTVIHMLPPPPVQRHHWFTEAKGESSEKPAIVFMYRCDPAQGQLSVDQSKARTDQAAVMEKGRAENALLQDSEKKRSHSSPSQIPKKILSHMTHEVTEDFSPRDPRTVVGKQDGRGCTSVTTALSLPELEREDGKEDISDPMDPNPCSATYSNLGQSRAAMIPPKQPRQPKGAVDDAIAFGGKTDQEAPNASQPTPPPLPKKMIIRANTEPISKDLQKSMESSLCVMANPTYDIDPNWDASSAGSSISYELKGLDIESYDSLERPLRKERPVPSAANSISSLTTLSIKDRFSNSMESLSSRRGPSCRQGRGIQKPQRQALYRGLENREEVVGKIRSLHTDALKKLAVKCEDLFMAGQKDQLRFGVDSWSDFRLTSDKPCCEAGDAVYYTASYAKDPLNNYAVKICKSKAKESQQYYHSLAVRQSLAVHFNIQQDCGHFLAEVPNRLLPWEDPDDPEKDEDDMEETEEDAKGETDGKNPKPCSEAASSQKENQGVMSKKQRSHVVVITREVPCLTVADFVRDSLAQHGKSPDLYERQVCLLLLQLCSGLEHLKPYHVTHCDLRLENLLLVHYQPGGTAQGFGPAEPSPTSSYPTRLIVSNFSQAKQKSHLVDPEILRDQSRLAPEIITATQYKKCDEFQTGILIYEMLHLPNPFDENPELKEREYTRADLPRIPFRSPYSRGLQQLASCLLNPNPSERILISDAKGILQCLLWGPREDLFQTFTACPSLVQRNTLLQNWLDIKRTLLMIKFAEKSLDREGGISLEDWLCAQYLAFATTDSLSCIVKILQHR
# notes: PEAK1, human cDNA cloned into pTriEx-FC; also called FC-PEAK1; FC-PEAK1^WT; source: HEK293T, transfected, in lysate; also purified from HEK293T (protein A sepharose, glycine pH 2.5 elution)
# How the values were obtained:
# [1] = biological target: ZO-1 (UniProt Q07157); assay: co-IP of FC-PEAK1, ZO-1 blot; details: reference: FC-PEAK1 wild type; sites Y724
# [2] = biological target: T1, GFP-tagged ZO-1 (human, UniProt Q07157 1-1748); assay: pull-down; 10 μg FC-tagged PEAK1^WT or PEAK1^Y724F purified from HEK293T held on Protein A Sepharose (blocked with 10% FBS); GFP-tagged ZO-1 at 0, 1, 2 and 4 μg, 4 h, 4 °C; immunoblot; details: both partners purified
# T1 construct: ZO-1, human cDNA cloned into pTriEx-GFP; last truncation ends at 1748; also called GFP-ZO-1; GFP-tagged ZO-1 (WT); source: HEK293T, transfected, in lysate; also purified from HEK293T (anti-GFP magnetic beads, glycine pH 2.5 elution)
# T1 sequence (Q07157 whole entry, the tested form may be a part): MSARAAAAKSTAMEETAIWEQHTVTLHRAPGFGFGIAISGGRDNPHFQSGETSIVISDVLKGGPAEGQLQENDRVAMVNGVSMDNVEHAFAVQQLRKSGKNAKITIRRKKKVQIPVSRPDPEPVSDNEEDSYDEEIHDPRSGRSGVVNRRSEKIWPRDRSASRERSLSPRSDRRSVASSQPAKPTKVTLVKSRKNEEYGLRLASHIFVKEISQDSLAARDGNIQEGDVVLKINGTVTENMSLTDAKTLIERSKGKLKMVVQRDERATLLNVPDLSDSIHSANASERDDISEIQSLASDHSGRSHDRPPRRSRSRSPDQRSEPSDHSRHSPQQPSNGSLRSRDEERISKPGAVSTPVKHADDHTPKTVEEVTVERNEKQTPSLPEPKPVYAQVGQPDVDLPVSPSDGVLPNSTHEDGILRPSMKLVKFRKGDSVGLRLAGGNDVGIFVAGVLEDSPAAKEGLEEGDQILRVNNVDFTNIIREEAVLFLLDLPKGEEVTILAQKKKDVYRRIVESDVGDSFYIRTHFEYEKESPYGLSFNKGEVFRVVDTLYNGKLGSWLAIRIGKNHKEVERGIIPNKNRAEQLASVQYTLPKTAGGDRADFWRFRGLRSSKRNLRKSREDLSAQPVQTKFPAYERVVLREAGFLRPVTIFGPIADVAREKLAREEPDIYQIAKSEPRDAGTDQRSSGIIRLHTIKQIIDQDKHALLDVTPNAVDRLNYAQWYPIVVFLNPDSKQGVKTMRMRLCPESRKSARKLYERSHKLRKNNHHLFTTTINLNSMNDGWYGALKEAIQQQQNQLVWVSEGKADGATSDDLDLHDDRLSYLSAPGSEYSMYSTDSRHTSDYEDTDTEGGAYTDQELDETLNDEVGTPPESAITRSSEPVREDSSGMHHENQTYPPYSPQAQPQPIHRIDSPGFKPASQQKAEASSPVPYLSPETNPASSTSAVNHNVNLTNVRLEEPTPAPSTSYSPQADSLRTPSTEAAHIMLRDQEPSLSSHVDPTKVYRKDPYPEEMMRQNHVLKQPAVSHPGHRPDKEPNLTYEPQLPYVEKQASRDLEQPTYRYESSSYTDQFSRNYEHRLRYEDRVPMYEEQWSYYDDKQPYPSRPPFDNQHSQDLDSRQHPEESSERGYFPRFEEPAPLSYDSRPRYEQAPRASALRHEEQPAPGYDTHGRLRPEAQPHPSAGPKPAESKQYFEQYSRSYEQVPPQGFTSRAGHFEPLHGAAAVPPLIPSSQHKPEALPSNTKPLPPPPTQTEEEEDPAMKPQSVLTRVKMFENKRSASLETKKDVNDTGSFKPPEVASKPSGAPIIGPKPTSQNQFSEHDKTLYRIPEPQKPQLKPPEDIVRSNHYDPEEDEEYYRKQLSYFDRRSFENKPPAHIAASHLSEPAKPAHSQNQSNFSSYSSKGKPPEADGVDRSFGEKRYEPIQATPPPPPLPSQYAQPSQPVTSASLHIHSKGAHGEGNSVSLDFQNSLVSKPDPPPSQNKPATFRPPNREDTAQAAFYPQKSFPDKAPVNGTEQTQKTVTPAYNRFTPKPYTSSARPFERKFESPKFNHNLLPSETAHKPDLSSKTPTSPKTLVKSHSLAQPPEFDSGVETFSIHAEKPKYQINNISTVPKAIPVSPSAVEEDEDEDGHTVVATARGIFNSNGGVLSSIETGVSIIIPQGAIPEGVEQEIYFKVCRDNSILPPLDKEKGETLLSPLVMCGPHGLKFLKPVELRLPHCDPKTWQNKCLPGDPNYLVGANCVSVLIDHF
Molecule,binding against the reference [1],binding result [2]
PEAK1 (from UniProt Q9H792) FC-PEAK1 Y724F,weaker,–
B1,–,binds
